# Reference: the supplement of paper PMC7877785
# ± gives the uncertainty stated by the source.
# Assay: self-splicing fitness, log relative to wild type (ln ratio); higher = more splicing; Tetrahymena group I intron in knt gene, E. coli kanamycin selection, DiMSum; sequences stand for … in CUCUCU…GGAGGGAAAAGUUAUCAGGCAUGCACCUGGUAGCUAGUCUUUAAACCAAUAGAUUGCAUCGGUUUAAAAGGCAAGACCGUCAAAUUGCGGGAAAGGGGUCAACAGCCGUUCAGUACCAAGUCUCAGGGGAAACUUUGAGAUGGCCUUGCAAAGGGUAUGGUAAUAAGCUGACGGACAUGGUCCUAACCACGCAGCCAAGUCCUAAGUCAACAGAUCUUCUGUUGAUAUGGAUGCAGUUCACAGACUAAAUGUCGGUCGGGGAAGAUGUAUUCUUCUCAUAAGAUAUAGUCGGACCUCUCCUUAAUGGGAGCUAGCGGAUGAAGUGAUGCAACACUGGAGCCGCUGGGAACUAAUUUGUAUGCGAAAGUAUAUUGAUUAGUUUUGGAGUACUCGUGGUCG
# In short: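 Pooled colonies went to amplicon sequencing on an Illumina HiSeq 2500 after six replicate transformations. The plates were LB agar with 100 μg/mL carbenicillin, 50 μM IPTG and 0.2% rhamnose, with or without 25 μg/mL kanamycin, incubated overnight at 37°C or 30°C. The E. coli BL21(DE3) library had all eight P1ex-region intron nucleotides randomised, the intron placed in the knt kanamycin-resistance gene on pET-22b(+). DiMSum fitness is the error-weighted combination of replicate fold changes, kanamycin against none, normalised to wild type.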
sequence,measurement,setting,value
CCCGAGCAAUAUUACGCGAA,self-splicing fitness (ln),37 °C,-3.31 ± 0.21
UGUGAGCAAUAUUACGGGGU,self-splicing fitness (ln),30 °C,-3.98 ± 0.21
same,self-splicing fitness (ln),37 °C,-2.75 ± 0.28
CAGAAGCAAUAUUACGGGUU,self-splicing fitness (ln),30 °C,-3.12 ± 0.24
same,self-splicing fitness (ln),37 °C,-3.23 ± 0.21
CCGCAGCAAUAUUACGUCUU,self-splicing fitness (ln),30 °C,-3.69 ± 0.37
same,self-splicing fitness (ln),37 °C,-3.07 ± 0.24
CAUGAGCAAUAUUACGCUCC,self-splicing fitness (ln),37 °C,-1.38 ± 0.48
UCUAAGCAAUAUUACGGUCC,self-splicing fitness (ln),37 °C,-0.662 ± 0.27
CUCGAGCAAUAUUACGCCCG,self-splicing fitness (ln),37 °C,-2.74 ± 0.43
CCUCAGCAAUAUUACGCGAU,self-splicing fitness (ln),30 °C,-4.95 ± 0.38
same,self-splicing fitness (ln),37 °C,-2.63 ± 0.22
UGGGAGCAAUAUUACGUCCA,self-splicing fitness (ln),30 °C,-2.03 ± 0.12
same,self-splicing fitness (ln),37 °C,-1.13 ± 0.11
AAGUAGCAAUAUUACGGUAA,self-splicing fitness (ln),30 °C,-1.12 ± 0.17
same,self-splicing fitness (ln),37 °C,-0.903 ± 0.13
AGUGAGCAAUAUUACGAUAG,self-splicing fitness (ln),30 °C,-2.34 ± 0.17
same,self-splicing fitness (ln),37 °C,-2.18 ± 0.34
GCGCAGCAAUAUUACGGGUU,self-splicing fitness (ln),30 °C,-1.71 ± 0.042
same,self-splicing fitness (ln),37 °C,-0.67 ± 0.053
ACUGAGCAAUAUUACGUACU,self-splicing fitness (ln),30 °C,-2.16 ± 0.19
same,self-splicing fitness (ln),37 °C,-1.42 ± 0.19
UCCCAGCAAUAUUACGGCGG,self-splicing fitness (ln),30 °C,-2.91 ± 0.16
same,self-splicing fitness (ln),37 °C,-2.21 ± 0.18
UAACAGCAAUAUUACGCCUG,self-splicing fitness (ln),30 °C,-0.264 ± 0.085
same,self-splicing fitness (ln),37 °C,0.182 ± 0.11
CAUAAGCAAUAUUACGGCAU,self-splicing fitness (ln),30 °C,-4.06 ± 0.31
same,self-splicing fitness (ln),37 °C,-1.15 ± 0.2
UGAUAGCAAUAUUACGUAUC,self-splicing fitness (ln),30 °C,-2.67 ± 0.48
ACUGAGCAAUAUUACGGAGG,self-splicing fitness (ln),30 °C,-2.97 ± 0.18
same,self-splicing fitness (ln),37 °C,-2.76 ± 0.25
GUCGAGCAAUAUUACGCAGA,self-splicing fitness (ln),30 °C,-2.79 ± 0.32
same,self-splicing fitness (ln),37 °C,-1.61 ± 0.39
UAGCAGCAAUAUUACGACCC,self-splicing fitness (ln),37 °C,-0.938 ± 0.41
GCAUAGCAAUAUUACGGACA,self-splicing fitness (ln),30 °C,-1.74 ± 0.15
same,self-splicing fitness (ln),37 °C,-0.572 ± 0.14
UAUAAGCAAUAUUACGCUAG,self-splicing fitness (ln),30 °C,-2 ± 0.18
same,self-splicing fitness (ln),37 °C,-0.688 ± 0.23
ACCCAGCAAUAUUACGCGAC,self-splicing fitness (ln),30 °C,-2.48 ± 0.12
same,self-splicing fitness (ln),37 °C,-1.22 ± 0.13
CACAAGCAAUAUUACGCCUA,self-splicing fitness (ln),30 °C,-1.01 ± 0.091
same,self-splicing fitness (ln),37 °C,-0.204 ± 0.085
UUAGAGCAAUAUUACGAUUU,self-splicing fitness (ln),30 °C,-2.08 ± 0.18
same,self-splicing fitness (ln),37 °C,-1.88 ± 0.26
GAGCAGCAAUAUUACGCGUC,self-splicing fitness (ln),30 °C,-3.39 ± 0.29
same,self-splicing fitness (ln),37 °C,-2.8 ± 0.3
GGAAAGCAAUAUUACGGGGU,self-splicing fitness (ln),30 °C,-3.1 ± 0.22
same,self-splicing fitness (ln),37 °C,-3 ± 0.28
ACCGAGCAAUAUUACGCGUG,self-splicing fitness (ln),30 °C,-1.41 ± 0.079
same,self-splicing fitness (ln),37 °C,-0.71 ± 0.08
UGCAAGCAAUAUUACGUGGU,self-splicing fitness (ln),30 °C,-4.13 ± 0.17
same,self-splicing fitness (ln),37 °C,-2.84 ± 0.16
CUAAAGCAAUAUUACGCGGU,self-splicing fitness (ln),30 °C,-1.44 ± 0.097
same,self-splicing fitness (ln),37 °C,-1.2 ± 0.094
AAUAAGCAAUAUUACGCACC,self-splicing fitness (ln),30 °C,-0.414 ± 0.13
same,self-splicing fitness (ln),37 °C,0.346 ± 0.13
UCUUAGCAAUAUUACGGACG,self-splicing fitness (ln),30 °C,-2.42 ± 0.3
UCGAAGCAAUAUUACGUAAC,self-splicing fitness (ln),30 °C,-2.1 ± 0.19
same,self-splicing fitness (ln),37 °C,-2.77 ± 0.38
GAGUAGCAAUAUUACGCACC,self-splicing fitness (ln),30 °C,-0.317 ± 0.25
same,self-splicing fitness (ln),37 °C,-1.31 ± 0.24
UGUUAGCAAUAUUACGUGGG,self-splicing fitness (ln),30 °C,-3.19 ± 0.27
same,self-splicing fitness (ln),37 °C,-2.89 ± 0.27
GUUAAGCAAUAUUACGUACC,self-splicing fitness (ln),30 °C,-0.386 ± 0.29
CGUAAGCAAUAUUACGAAUU,self-splicing fitness (ln),30 °C,-3.76 ± 0.29
same,self-splicing fitness (ln),37 °C,-2.17 ± 0.21
GCAGAGCAAUAUUACGAUAC,self-splicing fitness (ln),30 °C,-2.79 ± 0.28
same,self-splicing fitness (ln),37 °C,-0.699 ± 0.22
CAGUAGCAAUAUUACGUGGC,self-splicing fitness (ln),30 °C,-2.97 ± 0.28
same,self-splicing fitness (ln),37 °C,-2.36 ± 0.29
ACCAAGCAAUAUUACGUUGC,self-splicing fitness (ln),30 °C,-2.65 ± 0.086
same,self-splicing fitness (ln),37 °C,-0.992 ± 0.075
CCCAAGCAAUAUUACGGAUA,self-splicing fitness (ln),30 °C,-2.84 ± 0.22
same,self-splicing fitness (ln),37 °C,-2.17 ± 0.21
ACCUAGCAAUAUUACGGAUG,self-splicing fitness (ln),30 °C,-2.77 ± 0.11
same,self-splicing fitness (ln),37 °C,-1.24 ± 0.09
CGAAAGCAAUAUUACGAACC,self-splicing fitness (ln),30 °C,-0.666 ± 0.14
same,self-splicing fitness (ln),37 °C,-0.796 ± 0.16
GCACAGCAAUAUUACGACUU,self-splicing fitness (ln),30 °C,-0.119 ± 0.076
same,self-splicing fitness (ln),37 °C,0.33 ± 0.088
AUCAAGCAAUAUUACGUGCC,self-splicing fitness (ln),30 °C,-1.51 ± 0.14
same,self-splicing fitness (ln),37 °C,-0.426 ± 0.16
UUACAGCAAUAUUACGUGCU,self-splicing fitness (ln),30 °C,-3.78 ± 0.2
same,self-splicing fitness (ln),37 °C,-2.26 ± 0.23
UCUGAGCAAUAUUACGAUCA,self-splicing fitness (ln),30 °C,-3.84 ± 0.4
same,self-splicing fitness (ln),37 °C,-2.38 ± 0.36
ACCGAGCAAUAUUACGUGCA,self-splicing fitness (ln),30 °C,-2.45 ± 0.13
same,self-splicing fitness (ln),37 °C,-1.79 ± 0.12
UCCUAGCAAUAUUACGGUGA,self-splicing fitness (ln),30 °C,-0.297 ± 0.053
same,self-splicing fitness (ln),37 °C,0.225 ± 0.067
UCCGAGCAAUAUUACGUGGG,self-splicing fitness (ln),30 °C,-2.8 ± 0.17
same,self-splicing fitness (ln),37 °C,-2.56 ± 0.26
UCAUAGCAAUAUUACGUUCU,self-splicing fitness (ln),30 °C,-2.79 ± 0.27
same,self-splicing fitness (ln),37 °C,-2.32 ± 0.21
UACCAGCAAUAUUACGCCUC,self-splicing fitness (ln),30 °C,-2.32 ± 0.19
same,self-splicing fitness (ln),37 °C,-0.554 ± 0.18
UUUCAGCAAUAUUACGUCGG,self-splicing fitness (ln),30 °C,-1.51 ± 0.1
same,self-splicing fitness (ln),37 °C,-1.17 ± 0.14
AUGAAGCAAUAUUACGGGCG,self-splicing fitness (ln),30 °C,-0.667 ± 0.081
same,self-splicing fitness (ln),37 °C,0.118 ± 0.1
AACUAGCAAUAUUACGUGGA,self-splicing fitness (ln),30 °C,-2.28 ± 0.11
same,self-splicing fitness (ln),37 °C,-1.61 ± 0.1
CCAGAGCAAUAUUACGUUUG,self-splicing fitness (ln),30 °C,-2.32 ± 0.11
same,self-splicing fitness (ln),37 °C,-2.25 ± 0.17
CGAUAGCAAUAUUACGUGUC,self-splicing fitness (ln),30 °C,-3.67 ± 0.2
same,self-splicing fitness (ln),37 °C,-2.64 ± 0.16
UGCGAGCAAUAUUACGACGC,self-splicing fitness (ln),30 °C,-3.46 ± 0.25
CAGGAGCAAUAUUACGUUGG,self-splicing fitness (ln),30 °C,-2.44 ± 0.14
same,self-splicing fitness (ln),37 °C,-0.863 ± 0.14
AGAGAGCAAUAUUACGCGCU,self-splicing fitness (ln),30 °C,-1.89 ± 0.35
AUCAAGCAAUAUUACGUCAU,self-splicing fitness (ln),30 °C,-2.05 ± 0.088
same,self-splicing fitness (ln),37 °C,-1.45 ± 0.088
GUACAGCAAUAUUACGCGUA,self-splicing fitness (ln),30 °C,-3.44 ± 0.32
same,self-splicing fitness (ln),37 °C,-1.71 ± 0.24
AGCAAGCAAUAUUACGUUGG,self-splicing fitness (ln),30 °C,-4.16 ± 0.14
same,self-splicing fitness (ln),37 °C,-3.18 ± 0.17
UUGCAGCAAUAUUACGAAAU,self-splicing fitness (ln),30 °C,-2.39 ± 0.22
same,self-splicing fitness (ln),37 °C,-2.33 ± 0.39
CCGAAGCAAUAUUACGACGG,self-splicing fitness (ln),30 °C,-3.76 ± 0.27
same,self-splicing fitness (ln),37 °C,-3.11 ± 0.29
GAGAAGCAAUAUUACGAAUA,self-splicing fitness (ln),30 °C,-1.88 ± 0.25
same,self-splicing fitness (ln),37 °C,-0.917 ± 0.2
GUACAGCAAUAUUACGAUUU,self-splicing fitness (ln),30 °C,-1.28 ± 0.11
same,self-splicing fitness (ln),37 °C,-0.49 ± 0.089
CAGGAGCAAUAUUACGGGUU,self-splicing fitness (ln),30 °C,-4.36 ± 0.25
same,self-splicing fitness (ln),37 °C,-2.99 ± 0.19
CAAUAGCAAUAUUACGAACG,self-splicing fitness (ln),30 °C,-0.128 ± 0.053
same,self-splicing fitness (ln),37 °C,0.24 ± 0.07
UCUUAGCAAUAUUACGCGUG,self-splicing fitness (ln),30 °C,-3.05 ± 0.18
same,self-splicing fitness (ln),37 °C,-2.21 ± 0.15
GGUGAGCAAUAUUACGUCUC,self-splicing fitness (ln),30 °C,-1.28 ± 0.19
same,self-splicing fitness (ln),37 °C,-1.61 ± 0.22
CUUCAGCAAUAUUACGCAAA,self-splicing fitness (ln),30 °C,-2.99 ± 0.26
same,self-splicing fitness (ln),37 °C,-2.21 ± 0.33
GGAGAGCAAUAUUACGUCGC,self-splicing fitness (ln),30 °C,-1.99 ± 0.39
same,self-splicing fitness (ln),37 °C,0.588 ± 0.38
CGGGAGCAAUAUUACGUAUC,self-splicing fitness (ln),30 °C,-2.58 ± 0.49
CUCCAGCAAUAUUACGACGU,self-splicing fitness (ln),30 °C,-3.83 ± 0.21
same,self-splicing fitness (ln),37 °C,-2.01 ± 0.21
CCGAAGCAAUAUUACGACUU,self-splicing fitness (ln),30 °C,-2.97 ± 0.22
same,self-splicing fitness (ln),37 °C,-3.91 ± 0.39
UACAAGCAAUAUUACGGCCU,self-splicing fitness (ln),30 °C,-1.09 ± 0.094
same,self-splicing fitness (ln),37 °C,-0.547 ± 0.13
UAUUAGCAAUAUUACGCAGU,self-splicing fitness (ln),30 °C,-2.78 ± 0.28
same,self-splicing fitness (ln),37 °C,-2.72 ± 0.26
